US20260193293A1, “PEPTIDES CAPABLE OF INHIBITING PROTEIN-PROTEIN INTERACTIONS AT GABAB1A SUBUNIT AND USES THEREOF” (UNIVERSITY OF COPENHAGEN, priority 2022, published 2026)
Non-standard residues stand in square brackets, D forms with d. NMeW = CN[C@@H](Cc1c[nH]c2ccccc12)C(=O)O; NMeI = CC[C@H](C)[C@H](NC)C(=O)O; NMeT = CN[C@H](C(=O)O)[C@@H](C)O; NMeE = CN[C@@H](CCC(=O)O)C(=O)O; NMeD = CN[C@@H](CC(=O)O)C(=O)O; NMeV = CN[C@H](C(=O)O)C(C)C; NMeA = CN[C@@H](C)C(=O)O; Sar = CNCC(=O)O

biological target: Sushi domains (SD1/2) protein of the GABAB1a (GB1a) subunit, recombinant; test: FP competition
Sequence (Q9Z0U4 29-158): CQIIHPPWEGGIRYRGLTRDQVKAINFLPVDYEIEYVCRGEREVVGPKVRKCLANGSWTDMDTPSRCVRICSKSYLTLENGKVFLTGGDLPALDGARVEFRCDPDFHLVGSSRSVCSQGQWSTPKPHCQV

Binder	Ki
Ac-ETEFIAWGPTGD[NMeE]D-NH2 (SMILES CC[C@H](C)[C@H](NC(=O)[C@H](Cc1ccccc1)NC(=O)[C@H](CCC(=O)O)NC(=O)[C@@H](NC(=O)[C@H](CCC(=O)O)NC(C)=O)[C@@H](C)O)C(=O)N[C@@H](C)C(=O)N[C@@H](Cc1c[nH]c2ccccc12)C(=O)NCC(=O)N1CCC[C@H]1C(=O)N[C@H](C(=O)NCC(=O)N[C@@H](CC(=O)O)C(=O)N(C)[C@@H](CCC(=O)O)C(=O)N[C@@H](CC(=O)O)C(N)=O)[C@@H](C)O) […(N-Me-E)D]	31 nM
Ac-PWAIVWGPTVS[dR]ED-NH2 […rED]	605 nM
Ac-ETEFIAWGPTGDE[NMeD]-NH2 (SMILES CC[C@H](C)[C@H](NC(=O)[C@H](Cc1ccccc1)NC(=O)[C@H](CCC(=O)O)NC(=O)[C@@H](NC(=O)[C@H](CCC(=O)O)NC(C)=O)[C@@H](C)O)C(=O)N[C@@H](C)C(=O)N[C@@H](Cc1c[nH]c2ccccc12)C(=O)NCC(=O)N1CCC[C@H]1C(=O)N[C@H](C(=O)NCC(=O)N[C@@H](CC(=O)O)C(=O)N[C@@H](CCC(=O)O)C(=O)N(C)[C@@H](CC(=O)O)C(N)=O)[C@@H](C)O) […(N-Me-D)]	29 nM
Ac-PWAIVWAPTVSRED-NH2	877 nM
Ac-PWAIVWGPTV[dS]RED-NH2 […sRED]	552 nM
Ac-PW[dA]IVWGPTVSRED-NH2 [PWa…]	14100 nM
Ac-PAAIVWGPTVSRED-NH2	911 nM
Ac-PWAIVWGATVSRED-NH2	1500 nM
Ac-PWAIVWGP[NMeT]VSRED-NH2 (SMILES CC[C@H](C)[C@H](NC(=O)[C@H](C)NC(=O)[C@H](Cc1c[nH]c2ccccc12)NC(=O)[C@@H]1CCCN1C(C)=O)C(=O)N[C@H](C(=O)N[C@@H](Cc1c[nH]c2ccccc12)C(=O)NCC(=O)N1CCC[C@H]1C(=O)N(C)[C@H](C(=O)N[C@H](C(=O)N[C@@H](CO)C(=O)N[C@@H](CCCNC(=N)N)C(=O)N[C@@H](CCC(=O)O)C(=O)N[C@@H](CC(=O)O)C(N)=O)C(C)C)[C@@H](C)O)C(C)C) [PWAIVWGP(N-Me-T)VSRED]	1260 nM
Ac-PWAIVWGPT[NMeV]SRED-NH2 (SMILES CC[C@H](C)[C@H](NC(=O)[C@H](C)NC(=O)[C@H](Cc1c[nH]c2ccccc12)NC(=O)[C@@H]1CCCN1C(C)=O)C(=O)N[C@H](C(=O)N[C@@H](Cc1c[nH]c2ccccc12)C(=O)NCC(=O)N1CCC[C@H]1C(=O)N[C@H](C(=O)N(C)[C@H](C(=O)N[C@@H](CO)C(=O)N[C@@H](CCCNC(=N)N)C(=O)N[C@@H](CCC(=O)O)C(=O)N[C@@H](CC(=O)O)C(N)=O)C(C)C)[C@@H](C)O)C(C)C) […(N-Me-V)SRED]	1780 nM
Ac-PWAI[NMeV]WGPTVSRED-NH2 (SMILES CC[C@H](C)[C@H](NC(=O)[C@H](C)NC(=O)[C@H](Cc1c[nH]c2ccccc12)NC(=O)[C@@H]1CCCN1C(C)=O)C(=O)N(C)[C@H](C(=O)N[C@@H](Cc1c[nH]c2ccccc12)C(=O)NCC(=O)N1CCC[C@H]1C(=O)N[C@H](C(=O)N[C@H](C(=O)N[C@@H](CO)C(=O)N[C@@H](CCCNC(=N)N)C(=O)N[C@@H](CCC(=O)O)C(=O)N[C@@H](CC(=O)O)C(N)=O)C(C)C)[C@@H](C)O)C(C)C) [PWAI(N-Me-V)…]	7000 nM
Ac-P[NMeW]AIVWGPTVSRED-NH2 (SMILES CC[C@H](C)[C@H](NC(=O)[C@H](C)NC(=O)[C@H](Cc1c[nH]c2ccccc12)N(C)C(=O)[C@@H]1CCCN1C(C)=O)C(=O)N[C@H](C(=O)N[C@@H](Cc1c[nH]c2ccccc12)C(=O)NCC(=O)N1CCC[C@H]1C(=O)N[C@H](C(=O)N[C@H](C(=O)N[C@@H](CO)C(=O)N[C@@H](CCCNC(=N)N)C(=O)N[C@@H](CCC(=O)O)C(=O)N[C@@H](CC(=O)O)C(N)=O)C(C)C)[C@@H](C)O)C(C)C) [P(N-Me-W)…]	833 nM
Ac-P[dW]AIVWGPTVSRED-NH2 [Pw…]	1230 nM
Ac-AWAIVWGPTVSRED-NH2	552 nM
Ac-PWA[NMeI]VWGPTVSRED-NH2 (SMILES CC[C@H](C)[C@@H](C(=O)N[C@H](C(=O)N[C@@H](Cc1c[nH]c2ccccc12)C(=O)NCC(=O)N1CCC[C@H]1C(=O)N[C@H](C(=O)N[C@H](C(=O)N[C@@H](CO)C(=O)N[C@@H](CCCNC(=N)N)C(=O)N[C@@H](CCC(=O)O)C(=O)N[C@@H](CC(=O)O)C(N)=O)C(C)C)[C@@H](C)O)C(C)C)N(C)C(=O)[C@H](C)NC(=O)[C@H](Cc1c[nH]c2ccccc12)NC(=O)[C@@H]1CCCN1C(C)=O) [PWA(N-Me-I)…]	370 nM
Ac-PWAIV[NMeW]GPTVSRED-NH2 (SMILES CC[C@H](C)[C@H](NC(=O)[C@H](C)NC(=O)[C@H](Cc1c[nH]c2ccccc12)NC(=O)[C@@H]1CCCN1C(C)=O)C(=O)N[C@H](C(=O)N(C)[C@@H](Cc1c[nH]c2ccccc12)C(=O)NCC(=O)N1CCC[C@H]1C(=O)N[C@H](C(=O)N[C@H](C(=O)N[C@@H](CO)C(=O)N[C@@H](CCCNC(=N)N)C(=O)N[C@@H](CCC(=O)O)C(=O)N[C@@H](CC(=O)O)C(N)=O)C(C)C)[C@@H](C)O)C(C)C) [PWAIV(N-Me-W)GPTVSRED]	636 nM

Binder	Ki
Ac-PWAIVW[Sar]PTVSRED-NH2 (SMILES CC[C@H](C)[C@H](NC(=O)[C@H](C)NC(=O)[C@H](Cc1c[nH]c2ccccc12)NC(=O)[C@@H]1CCCN1C(C)=O)C(=O)N[C@H](C(=O)N[C@@H](Cc1c[nH]c2ccccc12)C(=O)N(C)CC(=O)N1CCC[C@H]1C(=O)N[C@H](C(=O)N[C@H](C(=O)N[C@@H](CO)C(=O)N[C@@H](CCCNC(=N)N)C(=O)N[C@@H](CCC(=O)O)C(=O)N[C@@H](CC(=O)O)C(N)=O)C(C)C)[C@@H](C)O)C(C)C) [PWAIVW(N-Me-G)PTVSRED]	58300 nM
Ac-PW[NMeA]IVWGPTVSRED-NH2 (SMILES CC[C@H](C)[C@H](NC(=O)[C@H](C)N(C)C(=O)[C@H](Cc1c[nH]c2ccccc12)NC(=O)[C@@H]1CCCN1C(C)=O)C(=O)N[C@H](C(=O)N[C@@H](Cc1c[nH]c2ccccc12)C(=O)NCC(=O)N1CCC[C@H]1C(=O)N[C@H](C(=O)N[C@H](C(=O)N[C@@H](CO)C(=O)N[C@@H](CCCNC(=N)N)C(=O)N[C@@H](CCC(=O)O)C(=O)N[C@@H](CC(=O)O)C(N)=O)C(C)C)[C@@H](C)O)C(C)C) [PW(N-Me-A)…]	7230 nM
Ac-ETEFIAWGPTG[NMeD]ED-NH2 (SMILES CC[C@H](C)[C@H](NC(=O)[C@H](Cc1ccccc1)NC(=O)[C@H](CCC(=O)O)NC(=O)[C@@H](NC(=O)[C@H](CCC(=O)O)NC(C)=O)[C@@H](C)O)C(=O)N[C@@H](C)C(=O)N[C@@H](Cc1c[nH]c2ccccc12)C(=O)NCC(=O)N1CCC[C@H]1C(=O)N[C@H](C(=O)NCC(=O)N(C)[C@@H](CC(=O)O)C(=O)N[C@@H](CCC(=O)O)C(=O)N[C@@H](CC(=O)O)C(N)=O)[C@@H](C)O) […(N-Me-D)ED]	45 nM
Ac-PWAIVWGPTVSAED-NH2	341 nM
Ac-PWAIVWG[dP]TVSRED-NH2 [PWAIVWGpTVSRED]	6860 nM
Ac-PWAIVW[dA]PTVSRED-NH2 [PWAIVWaPTVSRED]	18100 nM
Ac-PWAIVWGPAVSRED-NH2	1030 nM
Ac-PWAIVWGPTASRED-NH2	318 nM
Ac-PWAIVWGPTVSREA-NH2	572 nM
Ac-PWAIVWGPT[dV]SRED-NH2 […vSRED]	686 nM
Ac-PWAIVWGP[dT]VSRED-NH2 [PWAIVWGPtVSRED]	1300 nM
Ac-[dP]WAIVWGPTVSRED-NH2 (SMILES CC[C@H](C)[C@H](NC(=O)[C@H](C)NC(=O)[C@H](Cc1c[nH]c2ccccc12)NC(=O)[C@H]1CCCN1C(C)=O)C(=O)N[C@H](C(=O)N[C@@H](Cc1c[nH]c2ccccc12)C(=O)NCC(=O)N1CCC[C@H]1C(=O)N[C@H](C(=O)N[C@H](C(=O)N[C@@H](CO)C(=O)N[C@@H](CCCNC(=N)N)C(=O)N[C@@H](CCC(=O)O)C(=O)N[C@@H](CC(=O)O)C(N)=O)C(C)C)[C@@H](C)O)C(C)C) [p…]	555 nM
Ac-PWAIVWGPTVSRAD-NH2	600 nM
Ac-PWAAVWGPTVSRED-NH2	46600 nM
Ac-PWAIVWGPTVARED-NH2	480 nM
